This test has as its target CDK9 (UniProt P50750). The test can be described thus: co-IP with FLAG or HA antibody, immunoblot. The settings on record: reference: HA-TRIM28 wild type; sites S824. Background: A western blot detects proteins with antibodies after separation by electrophoresis.

Results on one substance are retold here after publication PMC8760265.

Consider “TRIM28 (from UniProt Q13263) HA-TRIM28-S824A”, for which the “binding against the reference” value is given as “weaker”.
